For the experiment, the target named is T1, α-CGRP (human) 37-mer peptide (calcitonin gene-related peptide) (Homo sapiens, UniProt P06881, C-terminal amide (amidated Phe119)).
T1 construct: human alpha-CGRP, mature 37-residue hormone; mature residues 26-37 correspond to 108-119 of the pro-hormone, so mature 1-37 would be 83-119; Only residues 26-37 (mature numbering; 108-119 of the pro-hormone) are visible in the complex structure; source: bought: Bachem
T1 chain: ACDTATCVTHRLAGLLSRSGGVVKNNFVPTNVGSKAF
Briefly: crystal structure; CGRP mixed with the Fab, complex purified by SEC; crystals at 20°C in sitting drops, 26% PEG MME 550, 9.5 mM ZnSO4, 95 mM MES pH 6.5, 30 mM glycyl-glycyl-glycine; X-ray diffraction to 3.10 Å; 2 Fab and 2 CGRP per asymmetric unit. Particulars: both partners purified. A general note: SEC sorts molecules by how far they enter the pores of the column.

B1: eptinezumab antigen-binding fragment (Fab) (Fab, V domains shown)
VH: EVQLVESGGGLVQPGGSLRLSCAVSGIDLSGYYMNWVRQAPGKGLEWVGVIGINGATYYASWAKGRFTISRDNSKTTVYLQMNSLRAEDTAVYFCARGDIWGQGTLVTVSS
VL: QVLTQSPSSLSASVGDRVTINCQASQSVYHNTYLAWYQQKPGKVPKQLIYDASTLASGVPSRFSGSGSGTDFTLTISSLQPEDVATYYCLGSYDCTNGDCFVFGGGTKVEIK
notes: heavy-chain part of the papain Fab of eptinezumab (humanized IgG1); light chain of eptinezumab; CDR L3 holds a disulfide bond (Cys95, Cys100 are named); also called eptinezumab Fab; source: partial endoproteolysis of eptinezumab with immobilized papain; purified by Fc depletion followed by SEC
Turning to B1, the binding result is “binds”.

Source of the values: paper PMC8810155, “The eptinezumab:CGRP complex structure – the role of conformational changes in binding stabilization” (Bioengineered, 2021).
